From the nanobody polyreactivity screen of Harvey et al. (2022)

Test: yeast display, Sf9 membrane polyspecificity reagent, FACS + sequencing; frameworks hold sequencing errors
Method in brief: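 Nanobodies from a synthetic yeast display library (Saccharomyces cerevisiae BJ5465), induced 36–48 hours with galactose, were stained 1 hour at 4 °C with 10% biotinylated, detergent-solubilized Sf9 membrane reagent, enriched on streptavidin microbeads, then FACS-sorted. Anti-HA (expression) and streptavidin (reagent binding) fluorescence set low and high (top ~1%) gates. Polyreactivity labels come from the gate of origin. Genes were colony-PCR amplified, MiSeq 2 × 250 sequenced and filtered by CDR length.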

Sequence	polyreactivity (PSR sort gate)
QVQLVESGGGLVQAGGSLRLSLAASGSNFSSYAMGWYRQAPGKEREWVAAIRLIGGTTYYADSVKGRFTISRDNAKNTVYLQMNSLKPEDTAVYYCNAPSYPDYIYWSQRYDYDYWGQGTKVTVSS	low polyreactivity
QVQLVESGGGLVQAGGSLRLSRAASGIMFGSYAMGWYRQAPGKERELVAAITSRGGSTYYADSVKGRFTISRDNAKNTVYLQMISLKPEDTAVYYCADVLYYWRVVYYVYADTGDYWGQCTQVTVSS	high polyreactivity
QVQLVESGGGLVQAGGSLRLSRAASGRIFHLYAMGWYRQAPGKERELVAAITGRGGSTYYADSVKGRFTISRDNAKNTVYLQMNSLKPEDTAVYYCAAYEFGFLRYYSGRSYYYWGQGTQVTVSS	high polyreactivity
QVQLVESGGGLVQAGGSLRLSRAASGRTFYGYAMGWYRQAPGKESELVARIRSGGSTNYADSVKGRFTISRDNAKNTFYLQMNSLIPEDTAVYYCAARPGAAGYKYYYWGQGTQVTVSS	high polyreactivity
QVQLVESGGGLVQAGGSLRLSSAASGFICATYSMGWYRQAPGKERELVASIRKSGGSTYYADSVKGRFTISRDNAKNTVYLQMNSLKPEDTAVYYCAKVYRYYPKYNYWGQGTQVTVSS	high polyreactivity
QVQLVESGGGLVQAGGSLRLSSAASGFIFEDYAMGWYREAPGKARELFAAISRRGGSTYYADSVKGRFTISRDNAQNTVYLQMNSLKPEDTADYYCAARKRYRPGERYEYWGQGTQVTVSS	high polyreactivity
QVQLVESGGGLVQAGGSLRLSSAASGFIFEPYAMGWYRQAPGKERELVAAIRWSDGSTFYADSVKGRFTISRDTAKNTVYLQMNSLKPEDSAVYYCNAVYEHRRVGWVTIDYGYWGQGTQVTVSS	low polyreactivity
QVQLVESGGGLVQAGGSLRLSSAASGFIFPAYAMGWYRQAPGKDRELVAAISKSGGRTYYADSVKGRFTISRDNAKNTVYLQMNSLKPEDTAVYYCNKYRYPREQYTWKYAWGYDYWGQGTQVTVSS	high polyreactivity
QVQLVESGGGLVQAGGSLRLSSAASGFIFRRYAMGWYRQAPGKERELVAAISGSGGRTYYADSVKGRFTISRDNAKNSVYLQMNSLKPEDTAVYYCAADQGSLLYDYWGQGTKVTVSS	high polyreactivity
QVQLVESGGGLVQAGGSLRLSSAASGFTFEENAMGWYRQAPGKERELVAAINWSGGNTYYADSVKGRFTISRDNAKNTVYLQMNSLKPEDTAVYYCAAVSTRYYYSVGPYYGYDYWVQGTQVTVSS	high polyreactivity
QVQLVESGGGLVQAGGSLRLSSAASGFTFSDNAMGWYRQAPGKERELVAAISRSGGNTHYADSVKGRFTISRDNAKNTVYLQMNSLKPEDTAVYYCAKYLYKSRIRSTFDYWGQGTQVTVSS	high polyreactivity
QVQLVESGGGLVQAGGSLRLSSAASGFVCNAMGWYRQAPGKERDLVAAIDSSGGNTYYADSVKGRFTISRDNAKNTVYLQMNSMKPEDTAVYYCAARYVERHTDYYYWGQGTQVTVSS	low polyreactivity
QVQLVESGGGLVQAGGSLRLSSAASGGTFGFNAMGWYRQAPGKERELVSGISSRGGSTYYADSVKGRFTISRDYAKNTVYLQMNSLKPEDTAVYYCNARQYPGRSWYRYDYWGQGTQVTVSS	high polyreactivity
QVQLVESGGGLVQAGGSLRLSSAASGIICAIYAMGWYRQAPGKERELVAAITWRGGSTYYADSVKGRFTISRDNAKNSVYFQKNRLKPEDTAVYYCAAVTKSLYGYDYWGQGTQVNVSS	low polyreactivity
QVQLVESGGGLVQAGGSLRLSSAASGITFGAYAMGWYRPAPGKERELVAAIRRSDGSTYYADSVKGRFTISRDNAKNTVDLQINSLKPEETAVYYCAADEGLYQGYEYDYWGHGTQVTVSS	high polyreactivity
QVQLVESGGGLVQAGGSLRLSSAASGITFGRNTMGWYRQAPGKEREFVAAIDSGGNTYADSVQGRFTISRDNAKNTVYLQMNSLKPEDTAVYYCAVAGGEFSSYGYLGQGTQVTVSS	low polyreactivity
QVQLVESGGGLVQAGGSLRLSSAASGITFRNYAMGWSRQAPGKERELVAAITRGGRTNYADSVKGRFTISRDNAKNTVYLQMNSLKPEDTAVYYCATGRDSNFGNSYYYWGQGTQVTVSS	high polyreactivity
QVQLVESGGGLVQAGGSLRLSSAASGITFTRNAMGWYRQAPGKERELVATIDSGDSTYYADSVKGRFTISRDNAKNTVYLQMNSQKPEDTAVYYCAAEWYGYEPSYWYYWPYEYWGQGTQVTVSS	high polyreactivity
QVQLVESGGGLVQAGGSLRLSSAASGLIFRHNAMGWYRQAPGKERELVAAISSTGGRTYYADSVKGRFTISRDNAKNTVYLQMNSLKPEDTAVYYCAARHTKALWSPQNGYYWGQGTQVTVSS	high polyreactivity
QVQLVESGGGLVQAGGSLRLSSAASGLIFWAYAMGWYRQAPGKERELVAAINSGGRTYYADSVKGRFTISRDNAKNTVYLQMNSLKPEDTAVYYCAAAGVYSSDYWGQGTQVTVSS	low polyreactivity
QVQLVESGGGLVQAGGSLRLSSAASGLTFQEYAMGWYRQAPGKESELVAAISWSGGSTYYADSVKGRFTISRDNAKNTVYLQMNSLKPEDTAVYYCAAEAYEEYITGWYAYDYWGQGTQVTVSS	high polyreactivity
QVQLVESGGGLVQAGGSLRLSSAASGLTFTYYVMGWYRQAPGKERELVAAITVSGGSTYYADSVKGRFTISRDNAKNTVYLQMNSLKPEDTAVYYCAADAYSGYSDYYWGQGTQVTVSS	low polyreactivity

Sequence	polyreactivity (PSR sort gate)
QVQLVESGGGLVQAGGSLRLSSAASGLTIAPYARGWYRPAPGKVWELVAAITQRGSSTYYADSVKGRFTISRDNAKNTVYLQMNSLKRVDTAVYYCAARYRARYYWGQGTQVTVSS	high polyreactivity
QVQLVESGGGLVQAGGSLRLSSAASGNINSWNTMGWYRQAPGKERELVAAITFRGTRTFYADSVKGRFTISRDNAKNTVYLQMNSLKPDDTAVFYCAARYYYSYSLGYDYWGQGTQVTVSS	high polyreactivity
QVQLVESGGGLVQAGGSLRLSSAASGNTIYGYAMGWYRQAPGNERELVASITLSGDSTYYADSVKGRFTISRDNAKNTVYLQMNSLKPEDTAVYYCAGVYTYPLGYYHYTYDYWGQGTQVTVSS	low polyreactivity
QVQLVESGGGLVQAGGSLRLSSAASGRIFAHNAMGWSRQAPGKERELVAAITWSGGSTYYADSVKGRFTISRDNAKNTVYLQMNSLKPEDTAVYYCNTDSHGHLYIYWGQGNQVTVSS	low polyreactivity
QVQLVESGGGLVQAGGSLRLSSAASGRIFPGYSMGWYRQAPGKERELVASISRTGRTNYADSVKGRFTNSRDNAKNTVYLPMHSLKPEDTAVYYCAAGIVVTGYDYWGQGTQVSVSS	low polyreactivity
QVQLVESGGGLVQAGGSLRLSSAASGRIFRRNTMGWYRQAPGKERELVAAITSSGGSTYADSVKGRFTISRDNAKNTVYLQMNSLKPEDTAVYYCATYVAYHRGYRTYDHWGQGTQVTVSS	low polyreactivity
QVQLVESGGGLVQAGGSLRLSSAASGRIFSDYDMGWYRQAHGKERELVAAITSGGITNYADSVKGRFTISRDNAKNTVYLQMNSLKPEDTAVYYCATGRRRYYFREYYYWGQGTQVTVSS	high polyreactivity
QVQLVESGGGLVQAGGSLRLSSAASGRIFWTNAMGWYRQAPGKERELVAGITWRGGSTYYADSVKGRFTISRDNAKNTVSLQMNSLKPEDTAVYYCASRQGWYSGFDYWGQGTQVTVSS	high polyreactivity
QVQLVESGGGLVQAGGSLRLSSAASGRIFYNYAMGWYRQAPGKERELVAAISVSGGSTYYADSVKGRFTISRDNAKNTVYLQMNSLKPEDTAVYYCAAGRGYTYNYWGQGSQVTVSS	high polyreactivity
QVQLVESGGGLVQAGGSLRLSSAASGRMFHFNAMGWYRQARGKERELVARITFSGGSTYYADSVKGRFTISRDNAKNTVYLQMNSLKPEDTAVYYCAVDAPPIFYEGGDYWGQGTQVTVSS	low polyreactivity
QVQLVESGGGLVQAGGSLRLSSAASGRNFGPYTMRWSRQAPGKERELVATISYSGSTTYYADSVKGRFTISRDNAKNTVYLQMNSLKPEDTAVYYCNAQYYVFITFDYWGQGTQVTVSS	high polyreactivity
QVQLVESGGGLVQAGGSLRLSSAASGRTFHSYARGWYRQSPGKERELVAGMSWGGTRTTYADSVKGRFTLSRDNAKNTVYLQMNSLKPEDTADYYCNAVYYALGRSPPDYGYWGQGTQVTVSS	low polyreactivity
QVQLVESGGGLVQAGGSLRLSSAASGRTFNVNAMGLYRQAPGKERELVAAIDFSDGRTYYADSVKGRFTISRDNAKNTVYLQMNSLKPADTAVYYCARSFRVGKTWYDYWGQGTQVTVSS	high polyreactivity
QVQLVESGGGLVQAGGSLRLSSAASGRTFQTNAMGWYRQAPGKERELVAAISSTGGSTYYADSVKGRFTISRDNAKNTVYLQMNSLKPEDTAVYYCNAGRTYRYDFWGQGTQVTVSS	high polyreactivity
QVQLVESGGGLVQAGGSLRLSSAASGRTFSYNTMGWYSQAPGQERELVARITWGGGSTNYAVSVKGRFTISRDNAKNTVYLQMNSLKPEDTAVYYCAAGPSVPYGPQKVDYWGQGTLVTVSS	low polyreactivity
QVQLVESGGGLVQAGGSLRLSSAASGRTFVNYTMGWYRQAPGIERELVAAITSSGGSTYYADSVKGRFTISRDNAKNTVYLQMNSLKPEDTAVYYCAAAKFDLSFWLYYWGQGTQVTVSS	low polyreactivity
QVQLVESGGGLVQAGGSLRLSSAASGRTFYLNAMGWYRQAPGKERELVAAIRISGGSTYYADSVKGRFTISRDNAKNTVYLQMKSLKPEDTAVYYCIAGPYHALSPTVSEYGYWGQGSQVTVSS	low polyreactivity
QVQLVESGGGLVQAGGSLRLSSAASGRTSYVYAMGWYRQEPGKERELVAVITRRGGSTYYADSVKGRFTISRDNAKNTVYLQMNSLKPEDTAVYYCNAAYTTWRRGPMNYWGQGTQVTVSS	high polyreactivity
QVQLVESGGGLVQAGGSLRLSSAASGSIFAYNDMGWYRQAPGKERELVAAITWSGDSTYYADSVKGRFTISRDNAKNTVYLQMNSLKPEDTAVYYCATDPLFKTSTRWKYDYWGQGTQVTVSS	low polyreactivity
QVQLVESGGGLVQAGGSLRLSSAASGSIFKYNAMGWYRQAPGEERELVAAIRWSGGSTYYADSVKGRFTISRDNAKNTVYLQMNSLKPEDTAVYYCAAEYFNQNTRQGYDYWGQGSQVTVSS	low polyreactivity
QVQLVESGGGLVQAGGSLRLSSAASGSIFKYYAMGWYRQAPGKERELVATISSVGSTNYADSVKGRFTISRDNAKNTVYLKMNSLKPEATAVYYCNARIGSRSYAWISTRYDYWGQGTQVTVSS	high polyreactivity
